Residue numbers refer to the chain shown, from its start.
T1: hCTLA4_ECD.His point mutant L141 to alanine (human, UniProt P16410 36-161)
T1 construct: extracellular domain; alanine-scan mutein, HEK293F supernatant
T1 sequence (looked up): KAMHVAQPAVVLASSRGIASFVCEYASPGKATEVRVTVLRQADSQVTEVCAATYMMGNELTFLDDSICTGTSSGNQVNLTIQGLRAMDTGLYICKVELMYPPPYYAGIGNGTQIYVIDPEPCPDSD

T2: hCTLA4_ECD.His point mutant G142 to alanine (human, UniProt P16410 36-161)
T2 construct: extracellular domain; alanine-scan mutein, HEK293F supernatant
T2 sequence (looked up): T1 sequence (looked up) with A106L, G107A

T3: hCTLA4_ECD.His point mutant N145 to alanine (human, UniProt P16410 36-161)
T3 construct: extracellular domain; alanine-scan mutein, HEK293F supernatant
T3 sequence (looked up): T1 sequence (looked up) with A106L, N110A

T4: hCTLA4_ECD.His point mutant C103 to alanine (human, UniProt P16410 36-161)
T4 construct: extracellular domain; alanine-scan mutein, HEK293F supernatant
T4 sequence (looked up): T1 sequence (looked up) with C68A, A106L

T5: hCTLA4_ECD.His point mutant Y139 to alanine (human, UniProt P16410 36-161)
T5 construct: extracellular domain; alanine-scan mutein, HEK293F supernatant
T5 sequence (looked up): T1 sequence (looked up) with Y104A, A106L

T6: hCTLA4_ECD.His point mutant V81 to alanine (human, UniProt P16410 36-161)
T6 construct: extracellular domain; alanine-scan mutein, HEK293F supernatant
T6 sequence (looked up): T1 sequence (looked up) with V46A, A106L

T7: hCTLA4_ECD.His point mutant M90 to alanine (human, UniProt P16410 36-161)
T7 construct: extracellular domain; alanine-scan mutein, HEK293F supernatant
T7 sequence (looked up): T1 sequence (looked up) with M55A, A106L

T8: hCTLA4_ECD.His (N145Q) (human, UniProt P16410 36-161)
T8 construct: extracellular domain; Glycosylation-site mutein, expressed in HEK293F cells; also called CTLA-4 N145Q
T8 sequence (looked up): T1 sequence (looked up) with A106L, N110Q

T9: hCTLA4_ECD.His (N113 Q) (human, UniProt P16410 36-161)
T9 construct: extracellular domain; Glycosylation-site mutein, expressed in HEK293F cells; also called CTLA-4 with N113Q
T9 sequence (looked up): T1 sequence (looked up) with N78Q, A106L

B1: W3162-1.146.19-z12-uAb.IgG1K (antibody, V domains shown)
VH: QVQLQESGPGLVKPSETLSLTCSVTYHTITSGYDWTWIRKPPGKGMEWIGYISYSGNTNYNPSLKSRVTISRDTSKNQFFLKLSSVTAADTAVYYCASMMVPHYYVMDAWGQGTLVTVSS
VL: DIVMTQTPLSLSVTPGQPASISCRSSQSLLNSDGNTYLYWYLQKPGQSPQLLIYLVSKLGSGVPNRFSGSGSGTDFTLKISRVEAEDVGVYYCVQGTHDPWTFGGGTKVEIK
notes: Humanized; label says IgG1K
B2: W3162_1.154.8-z35-uAb.IgG1K (antibody, V domains shown)
VH: QVQLVQSGAEVKKPGSSVKVSCKASGYTFTNYFMNWVRQAPGQGLEWMGRVDPEQGRADYAEKFKKRVTITADKSTSTAYMELSSLRSEDTAVYYCARRAMDNYGFAYWGQGTLVTVSS
VL: EIVLTQSPDFQSVTPKEKVTITCSANSALSYMYWYQQKPDQSPKLWVHGTSNLASGVPSRFSGSGSGTDFTLTINSLEAEDAATYYCHHWSNTQWTFGGGTKVEIK
notes: Humanized; label says IgG1K

How the values were obtained:
[1] = target: T10, Murine CTLA-4.ECD-6×His (mouse, UniProt P09793 36-161); experiment: SPR, antibody captured on anti-human Fc, CTLA-4.ECD-6×His as analyte, 1:1 fit
T10 construct: extracellular domain; Bought; also called mouse CTLA-4.ECD-6×His; mouse CTLA-4 ECD
Procedure: Biacore T200, Series S Sensor Chip CMS, Amine Coupling Kit, and 10×HBS-EP were purchased from GE Healthcare. […] In immobilization step, the activation buffer was prepared by mixing 400 mM EDC and 100 mM NHS immediately prior to injection. The CM5 sensor chip was activated for 420 s with the activation buffer. 30 μg/mL of goat anti-human IgG Fcγ antibody in 10 mM NaAc (pH 4.5) was then injected to Fc1-Fc4 channels for 200 s at a flow rate of 5 μL/min. The chip was deactivated by 1 M ethanolamine-HCl (GE). Then the antibodies were captured on the chip. Briefly, 4 μg/mL antibodies in running buffer (HBS-EP+) was injected individually to Fc3 channel for 30 s at a flow rate of 10 μL/min. […] Regeneration buffer (10 mM Glycine pH 1.5) was injected at 10 μL/min for 30 s following every dissociation phase.
The binding kinetics of these antibodies were measured using SPR. The antibodies were captured on immobilized anti-human Fc and CTLA-4-ECD at different concentration was injected orderly. The sensorgrams for reference channel and buffer channel were subtracted from the test sensorgrams. The data was used for 1:1 binding analysis on human, monkey and mouse CTLA-4.ECD-6×His.

[2] = target: T1, hCTLA4_ECD.His point mutant L141 to …; experiment: capture ELISA, alanine scan, vs silent alanine substitutions
How it was run: (§1)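 Secreted His-tagged CTLA4 point muteins in quantified supernatant were captured and probed with HRP anti-His antibody and TMB. Absorbance normalised to the mean of control mutants; epitope residues were assigned with a binding fold-change cutoff of <0.55.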

[3] = target: T2, hCTLA4_ECD.His point mutant G142 to …; experiment: as above
How it was run: as §1

[4] = target: T3, hCTLA4_ECD.His point mutant N145 to …; experiment: as above
How it was run: as §1

[5] = target: T4, hCTLA4_ECD.His point mutant C103 to …; experiment: as above
How it was run: as §1

[6] = target: T5, hCTLA4_ECD.His point mutant Y139 to …; experiment: as above
How it was run: as §1

[7] = target: T6, hCTLA4_ECD.His point mutant V81 to …; experiment: as above
How it was run: as §1

[8] = target: T7, hCTLA4_ECD.His point mutant M90 to …; experiment: as above
How it was run: as §1

[9] = target: T8, hCTLA4_ECD.His (N145Q); experiment: capture ELISA: W3162-1.154.8-z35 captured on anti-human Fc, hCTLA4-His mutein supernatant titrated (ng/ml), HRP-anti-His [C]
[10] = target: T9, hCTLA4_ECD.His (N113 Q); experiment: as above

Binder	Kd [1] [nM]	koff [1] [s⁻¹]	kon [1] [M⁻¹ s⁻¹]	Fold change [2] [fold]	Fold change [3] [fold]	Fold change [4] [fold]	Fold change [5] [fold]	Fold change [6] [fold]	Fold change [7] [fold]	Fold change [8] [fold]	EC50 (read off the curve) [9] [ng/mL]	EC50 (read off the curve) [10] [ng/mL]
B1	1.39	0.000239	172000	0.486	0.543	0.196	0.544	0.431	0.191	0.492		
B2											~3	~3

From US20200277377A1 (WUXI BIOLOGICS SHANGHAI, published 2020)
